Experiments:
[1] = molecular target: CD160 fused with Twin streptag (panning reagent from transfected 293T supernatant, unpurified or purified via its Fc region) (human) (UniProt O95971); assay: ELISA, coating antigen HEK supernatant (unpurified CD160 mIgG2a Fc), BY55-huIgG1 titrated, OD 450nm. The table under panel C repeats the value. The curve has no upper plateau in the range shown
[2] = molecular target: commercially sourced CD160 protein (UniProt O95971); assay: ELISA, coating antigen CD160-His (Commercial CD160), BY55-huIgG1 titrated, OD 450nm. The table under panel C repeats the value
[3] = molecular target: CD160 fused with Twin streptag (panning reagent from transfected 293T supernatant, unpurified or purified via its Fc region) (human) (UniProt O95971); assay: ELISA, coating antigen CD160-Fc purified (Purified CD160 mIgG2a Fc), BY55-huIgG1 titrated, OD 450nm. The table under panel C repeats the value. The curve has no upper plateau in the range shown
[4] = molecular target: human CD160, GPI-anchored isoform, on engineered cells (SupT1, 293T) (human) (UniProt O95971); assay: flow cytometry, 293T cells transiently transfected with pVAC2 human CD160; the same quadrant on non-transfected 293T cells prints 1.53
[5] = molecular target: human CD160, GPI-anchored isoform, on engineered cells (SupT1, 293T) (human) (UniProt O95971); assay: flow cytometry, BY55-IgM-PE. The thick histogram (SupT1 CD160) peaks at about 10^4, the thin one (SupT1 negative) below 10^2 [Continued) B]
[6] = molecular target: human CD160, GPI-anchored isoform, on engineered cells (SupT1, 293T) (human) (UniProt O95971); assay: flow cytometry, 293T cells transiently transfected with pVAC2 human CD160; the same quadrant on non-transfected 293T cells prints 0.071
[7] = molecular target: T1, purified CD160 (SPR analyte) (UniProt O95971 25-159, limits assumed); assay: SPR, Biacore T200, scFv captured on CM5 chip, CD160 as analyte, single-cycle kinetics, 1:1 Langmuir fit
T1 sequence (looked up): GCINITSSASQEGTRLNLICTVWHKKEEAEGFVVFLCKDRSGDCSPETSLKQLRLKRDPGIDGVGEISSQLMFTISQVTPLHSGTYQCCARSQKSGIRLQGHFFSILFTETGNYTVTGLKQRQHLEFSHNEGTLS
Experimental: FIG. 8—Characterization of the monoclonal scFv identified in the biopanning. [A] […] We identified five different CDR3H in which three were represented in multiple clones and […]. [B] Flow cytometry analysis of the five selected CDR3 expressed secreted as chimeric scFv fused with mIgG2aFc. […] [C] The affinity of these five scFv was determined using Biacore T200 technology. Individual scFvs were captured on a CM5 chip and CD160 was injected as analyte at 5 different concentration (3.70 nM, 11.11 nM, 33.33, nM, 100 nM and 300 nM) in a single-cycle kinetic study. The double-reference subtracted sensorgrams fitted with the 1:1 Langmuir binding model; kinetic and model fitting data are reported in the table.
The kinetic profile of the scFvs was studied by SPR using purified CD160 as the analyte and a range of high affinity scFvs were found (FIG. 8).

| Molecule | Kd [7] | koff [7] | kon [7] | other results |
| --- | --- | --- | --- | --- |
| BY55-huIgG1 (antibody) | – | – | – | EC50 [1]: 0.06 µg/mL; EC50 [2]: 0.14 µg/mL; EC50 [3]: 0.21 µg/mL |
| commercial anti-CD160 antibody BY55 | – | – | – | Q1 (anti-CD160-PE positive, blank channel negative), share of cells [4]: 66%; CD160+ (gate, share of cells) [5]: 92.9; Q2 (anti-CD160-PE positive, blank channel positive), share of cells [6]: 14% |
| anti-CD160 scFv clone 1 (C123) (scFv, Rat scFv, VH-linker-VL) scFv: EVKLVESGGGLVQPGRSLKLSCAASGFIFSNYAMAWVRQAPTKGLEWVASVNSGGANTYYRDSVKGRFTISRDNAKNTQYLHIDSLRSEDTATYYCATHNYESTVFDYWGQGAMVTVSSGGGGSGGGGSSGGGGSEIVLTQSPTTMTASPGEKVTITCRASSSVSYMHWYQQKPGASPKPWIYETSKLASGVPDRFSGSGSGTSYSLTINNMEAEDAATYYCQQWNYPSMYTFGAGTKLELKR | 0.00154 nM | 2.76e-07 s⁻¹ | 179000 M⁻¹ s⁻¹ | – |
| anti-CD160 scFv clone 4 (scFv) scFv: EVKLVESGGGLVQPGRPLKLSCAASGFTFSNYGMAWVRQAPKKGLEWVATISTGDDNTYYRDSVKGRFTISRDNAKNTQYLQMDSLRSEDTATYYCATHNYESTIFDYWGQGVMVTVSSGGGGSGGGGSGGGGSDIAITQSPASMTASPGERVTITCRASSSVSYMHWYQQKPGASPKPWIYETSKLASGVPDRFSGSGSGTSYSLTINNMEAEDAATYYCQQWNYPSMYTFGAGTKLELKR | 0.12 nM | 3.9e-05 s⁻¹ | 325000 M⁻¹ s⁻¹ | – |
| anti-CD160 scFv clone 5 (C10) (scFv, Rat scFv, VH-linker-VL; also called 010) scFv: QVQLKESGPGLVQPSETLSLTCTVSGFSLTNYGINWFRQPPGKGLEWMGTIWNDGGTDYNSALKSRLTISRDTSKSQVFLKMNSLQTEDTAIYFCARGMEAWGQGASVTVSSGGGGSGGGGSGGGGSDIQLTQSPSLLSASVGDRVTLSCKGSQNINNYLAWYQQKLGEAPKLLIYNTNSLQTGIPSRFSGSGSGTDYTLTISSLQPEDFATYFCLQHNSGYTFGAGTKLEIKR | 18.4 nM | 0.0305 s⁻¹ | 1.65e+06 M⁻¹ s⁻¹ | – |
| anti-CD160 scFv clone 6 (SC14) (scFv, Rat scFv, VH-linker-VL) scFv: EVQLVESGGGFVQPGRSLKLSCAASGFTFSNYAMAWVRQAPTKGLEWVASINSGGGDSYYRDSVKGRFTISRDNAKNTQYLQMDSLRSEDTATYYCATHNYGSTIFDYWGQGAMVTVSSGGGGSGGGGSGGGGSEIILTQSPTTMTASPGEKVTITCRASSSVSYMHWYQQKPGASPKPWIYETSKLASGVPDRFSGSGSGTSYSLTINNMEAEDAATYYCQQWNYPSMYTFGAGTKLELKR | 0.541 nM | 0.000143 s⁻¹ | 264000 M⁻¹ s⁻¹ | – |
| anti-CD160 scFv clone 9 (PB6) (scFv, Rat scFv, VH-linker-VL) scFv: EVQLVESGGGLVQPGRSLKLSCAASGFTFSNYAMAWVRQAPTKGLEWVASISSGGGDTYYRDSVKGRFTISRDNSKNTQYLQMDSLRSEDTATYYCATHNYESTVLITWGQGASVTVSSGGGGSGGGGSGGGGSEIVLTQSPTTTAASPGERVTITCRASSSVSYMHWYQQKPGASPKPWIYETSKLASGVPDRFSGSGSGTSYSLTINNMEAEDAATYYCQQWNYPSMYTFGAGTKLEIKR | 5.18 nM | 0.00211 s⁻¹ | 408000 M⁻¹ s⁻¹ | – |
| anti-CD160 scFv clone 7 (scFv, Rat scFv, VH-linker-VL) scFv: EVQLVESGPGLVQPSETLSLTCTVSGFSLTSHGVNWFRQPPGKGLEWMGTIWNDGGTDYNSALKSRLSIIRDTSKGQVFLKMNSLQTEDTAIYFCARGLAYWGQGTLVTVSSGGGGSGGGGSGGGGSDIQMTQSPASLSASLGETVNIECLASEDIYSDLAWYQQKPGKSPQLLIYNANSLQNGVPSRFSGSGSGTQYSLKINSLQSEDVATYFCQQYNNYPWTFGGGTKLEIKR | 0.33 nM | 0.00035 s⁻¹ | 1.06e+06 M⁻¹ s⁻¹ | – |
| anti-CD160 scFv clone 8 (PB9) (scFv, Rat scFv, VH-linker-VL) scFv: QVNLQESGPGLVQPSETLSLTCTVSGFSLTNYGINWFRQPPGKGLEWMGTIWNDGGTDYNSALKSRLSISRDTSKSQVFLKMNSLQTEDTAIYFCARGMDAWGQGASVTVSSGGGGSGGGGSGGGGSDIQMTQSPASLSASLGETVSIECLASEDIYNNLAWYQQKPGKSPQLLIYYANSLQDGVPSRFSGSGSGTQYSLKINSLQSEDVATYFCQQYNNYPFTFGSGTKLELKR | 4.92 nM | 0.00804 s⁻¹ | 1.63e+06 M⁻¹ s⁻¹ | – |
| anti-CD160 scFv clone 10 (scFv, Rat scFv, VH-linker-VL) scFv: EVQLVESGPGLVQPSETLSLTCTVSGFSLTSYGVNWFRQPPGKGLEWMGTIWNDGGTDYNSALKSRLSISRDTSKSQVFLKMNSLQTEDTAIYFCARGFEYWGQGTLVTVSSGGGGSGGGGSGGGGSDIVMTQSPKSMSISVGDRVTMNCKASQNVGKNIAWYQQKPGQSPKLLIYYASNRYTGVPDRFTGSGSGTDFTLTITNMQTEDLAVYYCLQYNYNPWTFGGGTKLELKR | 8.91 nM | 0.00245 s⁻¹ | 275000 M⁻¹ s⁻¹ | – |
| anti-CD160 scFv clone 11 (PB10) (scFv, Rat scFv, VH-linker-VL) scFv: EVQLVESGGGLVQPGRSLKLSCAASGFTFSNYGMAWVRQAPTKGLEWVASINTSGGSTYYRDSVKGRFTISRDNAKSTLYLQMDSLRSEDTATYYCATIYYHDGSYYYAGWFAYWGQGTLVTVSSGGGGSGGGGSGGGGSDIVLTQSPALAVSPGERVSISCRASESVSTLMHWYQQKLGQQPKLLIYGASNLESGVPARFSGSGSGTDFTLNIDPVEADDIATYFCQQSWNGPWTFGGGTKLELKR | 9.15 nM | 0.00125 s⁻¹ | 137000 M⁻¹ s⁻¹ | – |
| anti-CD160 scFv clone 2 (C25) (scFv) scFv: EVQLVESGGDLVQPGRSLKLSCAASGFTFSNYGMAWVRQAPTKGLEWVASVSNGGGNTYYRDSVKGRFTISRDNAKNTQYLQMDSLRSEDTATYYCVTHNYESTVFDYWGQGAMVTVSSGGGGSGGGGSGGGGSEIVLTQSPTTMTASPGEKVTITCRASSSVSYMHWYQQKPGASPKPWIYETSKLASGVPDRFSGSGSGTSYSLTINNMEAEDAATYYCQQWNYPSMYTFGPGTKLELKR | 0.262 nM | 6.51e-05 s⁻¹ | 249000 M⁻¹ s⁻¹ | – |
| anti-CD160 scFv clone 12 (scFv, Rat scFv, VH-linker-VL) scFv: EVQLVESGGGFVQPGGSLKLSCAASGFTFSNYGMAWVRQAPKKGLEWVASISSGRGNTYYRDSVKGRFTISRDNAKNTQYLQMDSLRSEDTATYYCVTHNYESTIFDYWGQGVMVTVSSGGGGSGGGGSGGGGSEIVLTQSPTTMTASPGEKVTIICRASSSVSYMHWYQQKPGASPKPWIYETSKLASGVPDRFSGSGSGTSYSLTFNNMEAEDAATYYCQQWNYPSMYTFGAGTKLELKR | 0.000853 nM | 1.75e-07 s⁻¹ | 205000 M⁻¹ s⁻¹ | – |
| anti-CD160 scFv clone 19 (scFv, Rat scFv, VH-linker-VL) scFv: EVKLVESGGGLVQPGRSLKLSCAASGFTFSNYGMAWVRQAPTKGLEWVATISNGGGNTYYRDSVKGRFTISRDNAKNTQYLQMDSLRSEDTATYYCVAHNYESTVFDYWGQGAMVTVSSGGGGSGGGGSGGGGSEIVLTQSPTPMTASPGEKVTITCRASSSVSYMHWYQQKPGASPKPWIYETSKLASGVPDRFSGSGSGTSYSLTINNMEAEDAATYYCQQWNYPSMYTFGAGTKLELKR | 5.31 nM | 0.000833 s⁻¹ | 157000 M⁻¹ s⁻¹ | – |
| anti-CD160 scFv clone 16 (scFv, Rat scFv, VH-linker-VL) scFv: QVNLQESGPGLVRPSETLSLTCTVSGFSLISYGVNWFRQPPGKGLEWMGTIWNDGGTDYNSALKSRLSISRDTSKSQVFLKMNSLQTEDTAIYFCARGFEHWGQGVMVTVSSGGGGSGGGGSGGGGSDIQMTQSPASLSASLGETVSIECLTSEDISNDSAWYQQKSGKSPQLLIYAASRLQDGVPSRFSGSGSGTRYSLKISGMQPEDEADYFCQQSYKYPLTFGSGTKLEIKR | 8.72 nM | 0.00243 s⁻¹ | 279000 M⁻¹ s⁻¹ | – |
| anti-CD160 scFv clone 3 (C83) (scFv) scFv: QVNLQESGPGLVQPSETLSLTCTVSGFSLTSYGVYWVRQPPGKGLEWMGRIWNDGGTDYNPALKSRLSISRDTSKSQVFLKLNSLQTEDTAIYFCARGWTHWGQGTLVTVSSGGGGSGGGGSGGGGSDIQMTQSPASLSASLGETVSIECLASEDIYNNLAWYQQKPGKSPQLLIYYASSLQDGVPSRFSGSGSGTQYSLKINSLESEDVATYFCLQDSEYPPTFGGGTKLELKR | 1.5e-05 nM | 1.69e-08 s⁻¹ | 1.13e+06 M⁻¹ s⁻¹ | – |

From US20240158500A1 (UCL BUSINESS, published 2024)
